Results: the DeepSol protein solubility set

assay: soluble on expression in E. coli; label from the status in PepcDB or PDB records

Row | Sequence | soluble on expression in E. coli
1 | MGSDKIHHHHHHMSSNALYTDLSGYYDLMCSDINYQQQSASIHRLHQFLGNNGKQHLDLACGTGPHVRHFIDLGYQCSGLDINQPMLDMAMRRCPEAQFNLQDMTAFYLEERVDLITCFLYSIHYSACIERLKSCIASVHSALNDGGLFCFNTVDKHRIDNTASVKHFAEFDGSHFAFESGWHYSGQGEKQSLKLSIAKSRLPFTEVSASPLPVSDMKGLGSLEAGLHAAGLQEVGLQELHSIEQWQDQHAMVATSFTELQELLAPYFEVHVFEHDYERIVPWDLASGNALFVCVKI | not soluble
2 | MGSDKIHHHHHHMSSPSFNVEEHKKMLQSYFNGQGFQRWASIYGDDKLSTVRSTVRQGHAVMMDKAFEWLQKTGLPKGSKILDAGCGTGLFTIRLAKSGYRVKAADIAEQMVNKTREDAEKAGVAGNVEFEVNSIESVSGTFDAVVCFDVLIHYPAEGFAHAFSNLAGLTKGPIIFTYAPFNNILAFQHWIGGFFPKKERRTTIQMIKDKEMQRVLSELGLKIVSQQKISFGFYHTMLMHVARR | not soluble
3 | MGSDKIHHHHHHMSSTKIIATFNQSGGAAKTTITHNLGYHLAKKHRVLLVDMDPQASLTAFMGLGEVKLQTEQTIYGAIAEETPLYIWEKPIHGMHLVPTNIQLAGTEQKIFHDLTIDNRQRLKFVLSNVLDQYDYILIDCPPSLGILSIMSLVAASHVIIPVETQYKCYLGTNQLLETIARLKKGGHQKLQIACIIPTKYDNRNLQDTGILEEIKQQVEGRIHVTAPIPKSTAFPDATQAHLPLALHKKNHPAVSILEEITKYITQLSVTQGQSH | not soluble
4 | MGSDKIHHHHHHMSTFHPSHPTHNRLLAALPPIELDDLAPHLELVHLLPGDVLCKPGETLPYAYFPTSSVISIHCMLENGASSELTSVGREGMLGVSLFMGGEATQNWVSVQSAGYGYRLNAAFLLQEFNEGGMLQRLLLRYSQALITEAVQNVVCSRYHTAQQRLCRWLLSMLDRLGPQDLILTQESIASILGVRRESVTAIARKLLEAGTICYRRGHIMVIDQIGLQKETCECYKKVKKEFDQVFDEVKTCEKVRQNSINAANAL | not soluble
5 | MGSDKIHHHHHHMSTKHSKAAAEFLKNKKQAAWHDETLWLVRAKRDRLSKEVPEWEELRNMACATKLYSNSHLDELLVEFENNARANGAHVYWAKDADEYCNIVYNILNQHGVKHFIKSKSMLAEECELNPFLESKGIEVVESDLGERILQLMHLKPSHIVLPAIHIKREQVGELFEREMGTEKGNFDPTYLTHAARKNLRQKFIHAEAAMTGANFAVASTGEIVVCTNEGNADMGTSQPKLQIAAFGMEKIVPDRESLGVFTRLLARSATGQPITTYTSHYRKPREGGELHIIIVDNGRSKILADPKHIKTLNCIRCGACMNTCPVYRRSGGYSYTYFIPGPIGINLGMLKAPLHYYDNVSACSLCYSCSFVCPAKVDLAEQIYLWRQDLDKLGKADRMKKVMSGGMEFMMKRPSIFNMALKWAPLVNGVPRFLIYNGLNDWGKGREMPKFAKESFNEMWKKGKVK | not soluble
6 | MGSDKIHHHHHHMSTRIPTEESLDTQQKDFLKKLKDNHYVGQNIWIKGFPGSGKSVLLVYAIKYLLNNEATQNAKILLVVFTHSLIELCKAELAELNITNVKIVTMYEFLKTKRKYDYIFCDEVQDLTSRILIKMKDQTRYMLIVAGDSNQSIYSKDPQYQEAVVIPEKITQLIDSEDWGLLYVYRLTRSIITAIQKMIPSMNIFSAKRYMLKRDTQIRLCKAEFVDQEVEYIMREARKFVNRNQSCAILFPTKDKVLEFCDTVLQLEHKPVWEKWIDQYYEPYFKRLNDHLKENQVPIECVVNSYGSLLAAENDKRIVIMTYHGVKGLDFDNVFIPFANTDLYIPGDSNITQKLFMVAMSRSRNNLYITYTGMPLSYVSLFSSDSTICANISISNELHPNLSDDINIDF | not soluble
7 | MGSDKIHHHHHHMSTVHDEMGVMNTTVKFLHSSDLQIGMTRWFLSDEAQARFDDDRIRAIEKMGKIARKNQCEFIVLAGDVFEHNSLEQRTTGRALEALRSLKLPVYLLPGNHDPLTADSLFYRAKDIDGVTILSDTTVHGVAPGVEIIGAPLLHKMATSDLVAEALKDLEPTSNVRIAVGHGQAEARTTDHRADLIDLNTVEAKLADGTIDYLALGDTHSAQPVGTSGKVWFSGAPETTDFHDLDPDRVGGEVNSGKVLIVSASKGDVSVEEVEVGKWTFHALSKEITSGTDVEDFLDTLQAYPDKSRTVIKYGLRGTITLEQNRRLEEGIAGLEDVFASLKPRERTTDLVLEPGEEELANLDATGYAAEVLRELADSVVNGAAPEEDRDALNLLFRLSREV | not soluble
